Test results reported in US20160137713A1 (HANALL BIOPHARMA, published 2016).

Molecular target: T1, rat FcRn on Rat-2 cells (rat, UniProt P13599 23-366; P07151 21-119)
T1 construct: whole, on cells
T1 sequence (looked up): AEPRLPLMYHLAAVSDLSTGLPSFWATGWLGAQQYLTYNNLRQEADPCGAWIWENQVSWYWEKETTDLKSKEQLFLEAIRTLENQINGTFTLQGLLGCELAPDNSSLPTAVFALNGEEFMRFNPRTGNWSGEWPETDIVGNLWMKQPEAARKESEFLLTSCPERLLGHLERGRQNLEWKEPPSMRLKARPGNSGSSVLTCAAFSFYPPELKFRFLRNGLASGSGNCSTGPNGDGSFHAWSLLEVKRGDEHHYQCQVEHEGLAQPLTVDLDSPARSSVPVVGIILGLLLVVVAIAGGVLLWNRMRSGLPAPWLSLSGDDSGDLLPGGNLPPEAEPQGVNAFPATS
T1 sequence (b2m, looked up): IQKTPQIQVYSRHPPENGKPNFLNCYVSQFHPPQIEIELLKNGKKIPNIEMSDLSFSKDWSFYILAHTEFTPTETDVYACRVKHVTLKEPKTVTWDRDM
Assay: FACS on rat FcRn-expressing Rat-2 cells at pH 6.0 and pH 7.4, FITC anti-human IgG goat antibody; MFI relative to hIgG
Experimental: Rat-2 (KCTC #AC28203), rat fibroblasts stably expressing rat FcRn, were cultured in 10% FBS DMEM medium, and then detached from the culture plate by trypsin treatment. The cells were washed three times with cold binding buffer (PBS pH 6.0, 10 mM EDTA), and then diluted in binding buffer at a concentration of 10⁵ cells/ml. 100 μl of the cell dilution was dispensed into each 1.5-ml tube in such a manner that each tube contained 10⁴ cells, and 1 μl of HL161 antibody (1 mg/ml) was added to the dispensed cells. Next, the cells were incubated on ice. As control antibodies, 1 μl of each of mouse 1G3 antibody and human IgG antibody (Abcam, cat#. 409120), which bind to rat FcRn, was used. The 1G3 antibody was produced and purified from mouse hybridoma cells (ATCC CRL2434). The cells were recovered by centrifugation at 4° C. and 4000 rpm for 5 minutes, after which the cells were washed once with binding buffer and resuspended in 100 μl of binding buffer. As FITC-conjugated secondary antibody, 1 μl of anti-human IgG goat antibody (Invitrogen, cat#. A11013) was added to the cells. In the case of the experiment using anti-rat FcRn mouse antibody, the anti-mouse IgG goat antibody (Invitrogen, cat#. A11001) was incubated with the cells on ice for 1 hour, and then the cells were recovered by centrifugation at 4° C. and 4000 rpm for 5 minutes, washed once with binding buffer, resuspended in 400 μl of binding buffer and analyzed by FACS to examine the cross-reactivity of the HL161 antibodies with rat FcRn (see FIG. 4). An experiment at a pH of 7.4 was performed using binding buffer at a pH of 7.4 in the same manner as the experiment using binding buffer at a pH of 6.0. The degree of the binding of each antibody to rat FcRn was presented as relative MFI based on human IgG.

B1: HL161-11H (antibody, V domains shown)
VH: QMQLVESGGGLVQPGRSLRLSCAASGFTFSSYAMHWVRQAPGKGLEWVAVISYDGSNKYYADSVKGRFTISRDNSKNTLYLQMNSLRSEDTAVYYCSRGSGGRDAFDVWGQGTMITVSS
VL: DIQMTQSPSTLSASVGDRVTITCRASQSISSRLAWYQQKPGKAPKLLIYKASSLETGVPSRFSGSGSGTEFTLTISSLQPDDFATYYCQQTNSFPLTFGGGTKVEIK
notes: Whole human IgG from pNATAB vectors
  binding result: no binding
